{"source": "patent US20020076693A1", "about": "“Novel cell surface receptor for HIV retroviruses, therapeutic and diagnostic uses” (priority 1997, published 2002)"}
{"tested_on": "HIV-1 Bal", "test": "Infection of human monocyte-derived macrophages by HIV-1 (p24)", "format": "cell-based", "details": "HIV-1 BaL (TASP also Ada); p24 in supernatant", "experimental": "Macrophages are infected with BaL or Ada HIV-1 viruses, in the presence of 2 μM, 1 μM or 0.1 μM of 5[Kψ (CH2N)PR]-TASP. Cells are preincubated during 30 min at 4° C. in the presence of 5[Kψ (CH2N)PR]-TASP before adding the virus. Every 3 days interval, the whole culture supernatant is collected and is replaced by RPMI 1640 culture medium supplemented with 20% fetal calf serum (FCS), 1% antibiotics, 1% glutamine, in addition to 5[Kψ (CH2N)PR]-TASP that is kept present in the culture medium until day 14 after in vitro infection. Virus production is quantitated by titration of p24 protein in the culture supernatant at different times (days) after in vitro infection. Each value represented in the graphs represents the mean of two test samples.\nMacrophages are infected by the BaL VIH-1 virus in the presence of 100 μg/ml of anti-P95, anti-P40 and anti-P30 antibody. Cells are preincubated during 30 min at 4° C. in the presence of each kind of antibody before adding the virus. The antibodies are kept present in the culture medium during the whole infection period of time. The experimental conditions are identical to those detailed in 4 +L4. The results are representative of two independent experiments.\nCells are preincubated during 30 min at 4° C. in the presence of the different molecules either alone or in association before adding the virus. Every three days period, the whole culture supernatant is collected and is replaced by RPMI 1640 culture medium supplemented with 20% fetal calf serum (FCS), 1% antibiotics, 1% glutamine, in addition to each tested molecule. Virus production is quantitated by titration of p24 protein in the culture supernatant at different times (days) after in vitro infection. Every value reprented in the graphs represents the mean of two test samples."}
{"molecule": "MIP-1β: β chemokine (protein, UniProt P13236 24-92, looked up) C-C motif chemokine 4: APMGSDPPTACCFSYTARKLPRNFVVDYYETSSLCSQPAVVFQTKRSKQVCADPSESWVQEYVYDLELN", "effect on infection of human macrophages by HIV-1": "inhibit"}
{"molecule": "MIP-1α: β chemokine (protein, UniProt P10147 24-92, looked up) C-C motif chemokine 3: SLAADTPTACCFSYTSRQIPQNFIADYFETSSQCSKPGVIFLTKRSRQVCADPSEEWVQKYVSDLELSA", "effect on infection of human macrophages by HIV-1": "weaker inhibitory effect"}
{"molecule": "Rantes: β chemokine, natural ligand of CCR5 (protein, UniProt P13501 24-91, looked up) C-C motif chemokine 5: SPYSSDTTPCCFAYIARPLPRAHIKEYFYTSGKCSNPAVVFVTRKNRQVCANPEKKWVREYINSLEMS", "effect on infection of human macrophages by HIV-1": "inhibit"}
